For series [1], the target named is T1, von Willebrand factor (VWF) (Homo sapiens, UniProt P04275 P04275:764-2813). As to the kind of experiment: filter; Bmax 52%; 2 mM CaCl2, 37 C. To be noted: tags: factor VIII free, Haematologic Technologies Inc; label: 5'-32P. On the procedure: (§1) Affinity constants (Kd values) were determined using double-filter nitrocellulose filter binding assays (Rusconi et al, Thromb. Haemost. $4:841-848 (2000)). All binding studies were performed in binding buffer F (20 mM HEPES, pH 7.4, 150 mM NaCl, 2 mM CaCl₂, and 0.01% BSA) at 37° C. Human purified VWF (factor VIII free) was purchased from Haematologic Technologies Inc. (Essex Junction, Vt.) and used in the double-filter nitrocellulose filter binding assay to determine the Kd of the aptamers. Briefly, RNA were end-labeled at the 5′ end with T4 polynucleotide kinase (New England Biolabs, Beverly, Mass.) and [γ³²P] ATP (Amersham Pharmacia Biotech, Piscataway, N.J.) (Fitzwater and Polisky, Methods Enzymol. 267:275-301 (1996)). End-labeled RNA was diluted in binding buffer F, heat denatured at 65° C. for 5 minutes, and subsequently equilibrated at 37° C. Direct binding was performed by incubating trace ³²P-RNA with varying concentrations of VWF protein in binding buffer F at 37° C. for 5 min. The fraction of the nucleic acid-protein complex which bound to the nitrocellulose membrane was quantified with a phosphorimager (Molecular Dynamics, Sunnyvale, Calif.). Non-specific binding of the radiolabeled nucleic acid was subtracted out of the binding such that only specific binding remained (Wong and Lohman, Proc. Natl. Acad. Sci. USA 90:5428-5432 (1993)).

Series [2] concerns the target T1, von Willebrand factor (VWF). Nature of the series: filter; Bmax 90%; 2 mM CaCl2, 37 C. Particulars: tags: factor VIII free human purified VWF, Haematologic Technologies Inc; label: 5'-32P. On the procedure:
as §1

Series [3] shares this target. As to the kind of experiment: filter; Bmax 56%; 2 mM CaCl2, 37 C. To be noted: tags: factor VIII free, Haematologic Technologies Inc. As for the experimental part: as §1
Series [4] deals with von Willebrand factor (VWF) in whole blood (Homo sapiens, UniProt P04275 P04275:764-2813). Nature of the series: inhibition; platelet adhesion to collagen under high shear, human whole blood; text gives 72.6. Particulars: protein: extract; tags: endogenous, hirudin-anticoagulated human whole blood. On the procedure:
The Venaflux™ microfluidics system (Cellix, Dublin, Ireland) measures platelet adhesion on a collagen surface. Human blood was collected into hirudin tubes from healthy volunteers by vena puncture. An aliquot containing 300 μl of whole blood treated with aptamer or platelet-binding buffer alone was flowed through collagen-coated micro-channels at 60 dynes for 3 minutes. Channels were then rinsed with saline for 3 minutes to wash away RBC and unbound platelets. Venaflux imaging software and Image Pro Plus were used to image bound platelets and calculate covered surface area. Aptamer was incubated at 95° C. for 3 minutes, placed on ice for 3 minutes, then incubated for 10 minutes at room temperature. After cooling, aptamer was kept on ice until use. Total surface area covered by bound platelets in treated blood was expressed as a percentage of total coverage in negative control blood. Statistical significance was determined by analysis of variance; IC₅₀ of the aptamer was calculated using a fitted linear regression curve.
To evaluate the inhibitory effect of the aptamer on platelet adhesion, human whole blood samples were treated with aptamer starting at 900 nmol/L with 2-fold dilutions to 14 nmol/L and tested by measuring platelet adhesion under high-shear stress. The aptamer prevented platelet adhesion to the collagen surface in a dose-dependent manner (FIG. 20-22).

In series [5] the target is T1, von Willebrand factor (VWF). As to the kind of experiment: filter; Bmax 60%; 2 mM CaCl2, 37 C. Particulars: tags: factor VIII free, Haematologic Technologies Inc; label: 5'-32P. On the procedure: as §1
The target is the same in series [6]. Nature of the series: filter; Bmax 75%; 2 mM CaCl2, 37 C. Particulars: tags: factor VIII free, Haematologic Technologies Inc; label: 5'-32P. On the procedure:
as §1

For series [7] the target is unchanged. As to the kind of experiment: filter; Bmax 10%; 2 mM CaCl2, 37 C. To be noted: tags: factor VIII free, Haematologic Technologies Inc; label: 5'-32P. As for the experimental part:
as §1

For series [8] the target is unchanged. Nature of the series: filter; Bmax 51%; 2 mM CaCl2, 37 C. To be noted: tags: factor VIII free, Haematologic Technologies Inc; label: 5'-32P. As for the experimental part: as §1
The target is the same in series [9]. As to the kind of experiment: filter; Bmax 72%; 2 mM CaCl2, 37 C. To be noted: Haematologic Technologies Inc, label: 5'-32P. On the procedure: as §1
Series [10] shares this target. As to the kind of experiment: filter; Bmax 83%; 2 mM CaCl2, 37 C. To be noted: Haematologic Technologies Inc, label: 5'-32P. As for the experimental part:
as §1

The target is the same in series [11]. As to the kind of experiment: filter; Bmax 59%; 2 mM CaCl2, 37 C. To be noted: tags: factor VIII free, Haematologic Technologies Inc; label: 5'-32P. On the procedure: as §1
Series [12] has the same target. As to the kind of experiment: filter; Bmax 55%; 2 mM CaCl2, 37 C. Particulars: tags: factor VIII free, Haematologic Technologies Inc; label: 5'-32P. As for the experimental part: as §1
The target is the same in series [13]. As to the kind of experiment: filter; Bmax 84%; 2 mM CaCl2, 37 C. To be noted: tags: factor VIII free, Haematologic Technologies Inc; label: 5'-32P. On the procedure:
as §1

Where [14] appears, read: tags: factor VIII free human purified VWF.

Residue numbers refer to the chain shown, from its start.

The term Kd denotes the equilibrium constant for the complex coming apart. A lower Kd goes with a tighter complex. For orientation: IC50 means the midpoint of a concentration-inhibition curve. Higher therefore signals lower potency.

B1: T69 (ssRNA)
RNA: ACGAACUGCCCUGAUUAUUCACGCACAGACGU
modifications: 2'-F C and U; 2'-OH A and G; 3' idT
Turning to B1, the affinity in series [1], expressed as Kd, was 26 nM.

B2: T94 vrt1 (ssRNA)
RNA: B1 RNA with G13C, A14U, A17U, C20G
modifications: 2'-F C2,U7,C9,C10,C11,U12,C22,C24,C30,U32; ribo A1,G3,G8,A21,G23,A25,G31; rest 2'-OMe; 3' idT
B2 had a Kd in series [2] of 0.9 nM.

B3: T79 vrt7 (DTRI-031) (ssRNA)
RNA: ACGAACUGCCCUCGAUCGACGCACAGACGUUUUUU
modifications: mAmCmGmAmAmCmUmGfCfCfCmUmCmGmAmUmCmGmAfCfGfCmAmCmAmGmAmCmGmUmUmUmUmUmU-idT
The molecule B3 came in with a dissociation constant Kd in [3] of 11.2 nM. The same molecule showed an IC50 in [4] of 72.5 nM.

B4: DTRI-034 (ssRNA)
RNA: B3 RNA with A15U, U16A, C17A
modifications: mAmCmGmAmAmCmUmGfCfCfCmUmCmGmUmAmAmGmAfCfGfCmAmCmAmGmAmCmGmUmUmUmUmUmUidT
Take B4: in series [5], the Kd came out at 2.8 nM. This counts as single-digit nanomolar.

B5: T79 vrt4 (ssRNA)
RNA: B3 RNA
modifications: mAmCmGmAmAmCmUmGfCfCfCmUmCmGmAmUmCmGmAfCrGfCmAmCmAmGmAmCmGmUmUmUmUmUmU-idT
Regarding B5, the dissociation constant Kd in [6] came out at 13 nM.

B6: T63 (ssRNA)
RNA: ACGAACGCCCUCGAUUAUUCGACGCACGACGU
modifications: 2'-F C and U; 2'-OH A and G; 3' idT
The molecule B6 had a Kd in series [7] of 83 nM.

B7: T10 (ssRNA)
RNA: GGGAGGUGGACGAACUGCCCUCAGCUACUUUCAUGUUGCUGACGCACAGACGACUCGCUG
modifications: 2'-F C and U; 2'-OH A and G; 3' idT
With B7, the affinity in series [8], expressed as Kd, was 18.4 nM. This counts as double-digit nanomolar.

B8: DTRI-011 (ssRNA)
RNA: ACGAACUGCCCUCGUAAGACGCACAGACGU
modifications: mAmCmGmAmAmCmUmGfCfCfCmUmCmGmUmAmAmGmAfCrGfCmAmCmAmGmAmCmGfUidT
Molecule B8 displayed a Kd in series [9] (tags: factor VIII free) of 3.8 nM.

B9: T21 (ssRNA)
RNA: GGGAGGUCAGCUACUUUCAUGUUGCUGACGCACAGACGACUCGCUG
modifications: 2'-F C and U; 2'-OH A and G
Consider B9, for which the affinity in series [7], expressed as Kd, was 26 nM.

B10: T83 vrt7 (ssRNA)
RNA: ACGAACUGCCCUCGAUCGACGCACAGACGUAAAAA
modifications: 2'-F C9,C10,C11,C20,G21,C22; rest 2'-OMe; 3' idT
The molecule B10 registered a Kd in [10] (setting [14]) of 265 nM. This counts as sub-micromolar.

B11: T84 vrt1 (ssRNA)
RNA: B10 RNA with A32C, A34C, A35G
modifications: 2'-F C2,U7,C9,C10,C11,U12,C20,C22,C28,U30; ribo A1,G3,G8,A19,G21,A23,G29; rest 2'-OMe; 3' idT
B11 showed a Kd in series [9] (setting [14]) of 1.7 nM.

B12: T59 vrt18 (ssRNA)
RNA: B8 RNA with U15A, A16U, A17C
modifications: mAmCmGmAmAmCmUrGfCfCfCmUmCmGmAmUmCmGmAfCrGfCmAmCmAmGmAmCmGfU-idT
In series [10] (tags: factor VIII free), B12 displayed a Kd of 5.7 nM.

B13: T77 (ssRNA)
RNA: AAAAACGAACUGCCCUCGAUCGACGCACAGACGU
modifications: 2'-F C and U; 2'-OH A and G; 3' idT
The molecule B13 showed a Kd in series [11] of 8.8 nM. That is a single-digit nanomolar value.

B14: T59 vrt24 (ssRNA)
RNA: B8 RNA with U15A, A16U, A17C
modifications: 2'-F U7,C9,C10,C11,U12,C20,C22,U30; ribo A19,G21; rest 2'-OMe; 3' idT
Molecule B14 showed a Kd in series [10] (setting [14]) of 2.4 nM.

B15: T38 (ssRNA)
RNA: ACGAACUGCCCUCGCACUUUCAUGUGCGACGCACAGACGU
modifications: 2'-F C and U; 2'-OH A and G; 3' idT
B15 returned a Kd in series [12] of 9.6 nM.

B16: T59 vrt7 (ssRNA)
RNA: B8 RNA with U15A, A16U, A17C
modifications: mAfCmGmAmAmCfUrGfCfCfCfUmCmGmAmUmCmGrAfCrGfCrAmCmAmGmAfCmGfU-idT
Take B16: the affinity in [13], expressed as Kd, was 0.8 nM.

(Values after patent publication US20190218553, “VON WILLEBRAND FACTOR (VWF)-TARGETING AGENTS AND METHODS OF USING THE SAME” (DUKE UNIVERSITY, published 2019).)
